Source: patent US20140148356

Key:
[1] = target: HBcAg (Hepatitis B virus core protein, 21 kDa) (Hepatitis B virus) (UniProt P03146); details: affinity qPCR; 7.6 nM HBcAg, 1 nM DNA
[2] = target: HBcAg (Hepatitis B virus core protein, 21 kDa) (Hepatitis B virus) (UniProt P03146); details: affinity qPCR on Ni-NTA plate; 0.1 nM aptamer, 0.1-5 nM protein; 20 mM Tris-HCl pH 7.6, 5 mM KCl, 100 mM NaCl, 5 mM MgCl2, 1 mM CaCl2, RT 1 h

Chain of HBcAg (Hepatitis B virus core protein, 21 kDa) (Hepatitis B virus) (P03146 whole entry): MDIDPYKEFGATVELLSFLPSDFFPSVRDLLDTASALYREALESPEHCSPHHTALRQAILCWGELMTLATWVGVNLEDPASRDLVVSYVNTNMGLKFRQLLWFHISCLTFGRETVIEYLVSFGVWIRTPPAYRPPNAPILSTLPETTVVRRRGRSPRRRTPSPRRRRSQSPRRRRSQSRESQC

Row | Sequence | binding signal [1] | Kd [2]
1 | AGCAGCACAGAGGTCAGATGACATCTAGAACCAACGGTTCTGTTTGATGAGAATTCGGCCCCTATGCGTGCTACCGTGAA [A-19] | 1.17 % bound | –
2 | AGCAGCACAGAGGTCAGATGTTGCATACGCCAAACAAGCATTGACAAGGTAACCCTGGGCCCTATGCGTGCTACCGTGAA [A-23] | 1.45 % bound | –
3 | AGCAGCACAGAGGTCAGATGGTTACATGCGCAGTAGCCGACGTACTCTGGTAAAAGGTAGCCTATGCGTGCTACCGTGAA [A-38] | 7.2 % bound | 0.16 nM
4 | AGCAGCACAGAGGTCAGATGTTTCCGAGGGAGTGGAATTAGCAAGGTGGAAGTGTTTCTACCTATGCGTGCTACCGTGAA [A-18] | 8.3 % bound | 0.14 nM
5 | AGCAGCACAGAGGTCAGATGAGGCCTGGTGATCGTGCCCAGGCCATATGAGCAAGGAACCCCTATGCGTGCTACCGTGAA [A-9] | 1 % bound | –
